{"source": "patent US20060019915A1", "about": "“Method to modulate the immune system with a novel guanine nucleotide exchange factor” (priority 2004, published 2006)", "molecules": {"B1": {"name": "IBP 313-631: IBP mutant containing the putative DH domain alone, GST fusion protein (protein, UniProt Q9H4E7 313-631, looked up, fragment)", "chain": "LQAEGKTSLHKDLKQKRREQREQRERRRAAKEEELLRLQQLQEEKERKLQELELLQEAQRQAERLLQEEEERRRSQHRELQQALEGQLREAEQARASMQAEMELKEEEAARQRQRIKELEEMQQRLQEALQLEVKARRDEESVRIAQTRLLEEEEEKLKQLMQLKEEQERYIERAQQEKEELQQEMAQQSRSLQQAQQQLEEVRQNRQRADEDVEAAQRKLRQASTNVKHWNVQMNRLMHPIEPGDKRPVTSSSFSGFQPPLLAHRDSSLKRLTRWGSQGNRTPSPNSNEQQKSLNGGDEAPAPASTPQEDKLDPAPEN", "modifications": "GST fusion", "notes": "IBP mutant containing the putative DH domain alone, GST fusion protein"}}, "key": {"[1]": {"biological_target": "T1, Rac1 (Homo sapiens, UniProt P63000)", "T1 construct": "purchased Calbiochem-Novabiochem; host or cells: bacteria", "test": "In vitro GDP release assay (filter-binding) on Rac1", "format": "biochemical", "details": "for dissociation of [3H]GDP from Rac1 (GEF activity): purified GST-IBP fusion protein, 4 pmol, [3H]GDP-loaded GST-Rac1", "description": "A-C, stimulation of GDP dissociation from Rho GTPases by wild-type or mutant IBP proteins. [^3H]GDP-loaded Rac1 (A), Cdc42 (B), or RhoA (C) was incubated with GST alone or with either wild-type or mutant GST-IBP fusion proteins, as indicated. The exchange reactions were stopped at the indicated time points, and the amount of [^3H]GDP remaining bound to the GTPases was then measured by filtering the quenched reaction samples over nitrocellulose membranes followed by scintillation counting of the membrane-bound radioactivity. The percentage of [^3H]GDP remaining bound at each time point was evaluated relative to the amount of radioactivity remaining at time 0 of the respective reaction, which was set to 100% in each experiment. The results shown are representative of at least three independent assays. D, regulation of IBP GEF activity by Lck and PI(3,4,5)P3. [^3H]GDP-loaded Rac1 was incubated with Lck-phosphorylated wild-type HA-IBP (IBP+Lck) in the presence or absence of PI(3,4,5)P3 (1 μM) for 0 or 40 min. Reactions without IBP (Lck and Lck^+ PI(3,4,5)P3) were simultaneously carried out as control. The exchange reactions were then stopped, and the amount of [^3H]GDP remaining bound to Rac1 was measured by filter-binding method as described for A-C. The percentage of [^3H]GDP remaining bound after incubation for 40 min was evaluated relative to the amount of radioactivity remaining at time 0 of the respective reaction, which was set to 100% in each experiment. The results shown are representative of at least three independent assays.\nThe in vitro GDP release assays were carried out by filter-binding method as described previously (28-31). To prepare [3H]GDP-loaded GTPases, 40 pmol of bacterially expressed and purified GST-Rac1, GST-Cdc42, or His-RhoA (Calbiochem-Novabiochem) was incubated with 1 μM [3H]GDP in 100 μl of a binding buffer (10 mM HEPES, pH 7.5, 100 mM NaCl, 5 mM MgCl2, 1 mM EGTA, 1 mM dithiothreitol, 50 μg/ml bovine serum albumin) for 60 min at 30° C. The nucleotide exchange reaction was initiated by adding 100 μM nonradioactive GTP and 4 pmol of purified GST alone or GST-IBP fusion proteins (or when appropriate, 4 pmol of purified wild-type HA-IBP either non-phosphorylated or in vitro phosphorylated by purified Lck and cold ATP) to the [3H]GDP-loaded GTPase and then equally splitting and incubating the reaction mixture for the indicated time periods at room temperature. […] The amount of [3H]GDP remaining bound to the GTPases was determined by filtering the quenched reaction samples over nitrocellulose membranes followed by extensive washing of the filters and then quantification of the membrane-bound radioactivity by scintillation counting."}, "[2]": {"biological_target": "T2, Cdc42 (Homo sapiens, UniProt P60953)", "T2 construct": "purchased Calbiochem-Novabiochem; host or cells: bacteria", "T2 sequence (P60953 whole entry, species assumed, the tested form may be a part)": "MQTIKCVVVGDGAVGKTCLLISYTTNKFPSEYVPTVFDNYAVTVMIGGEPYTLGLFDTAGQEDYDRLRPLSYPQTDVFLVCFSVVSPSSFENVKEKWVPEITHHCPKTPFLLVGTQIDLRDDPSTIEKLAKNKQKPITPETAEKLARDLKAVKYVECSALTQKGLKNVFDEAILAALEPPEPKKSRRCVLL", "test": "In vitro GDP release assay (filter-binding) on Cdc42", "format": "biochemical", "details": "purified GST-IBP fusion protein, 4 pmol; [3H]GDP-loaded GST-Cdc42", "description": "A-C, stimulation of GDP dissociation from Rho GTPases by wild-type or mutant IBP proteins. [^3H]GDP-loaded Rac1 (A), Cdc42 (B), or RhoA (C) was incubated with GST alone or with either wild-type or mutant GST-IBP fusion proteins, as indicated. The exchange reactions were stopped at the indicated time points, and the amount of [^3H]GDP remaining bound to the GTPases was then measured by filtering the quenched reaction samples over nitrocellulose membranes followed by scintillation counting of the membrane-bound radioactivity. The percentage of [^3H]GDP remaining bound at each time point was evaluated relative to the amount of radioactivity remaining at time 0 of the respective reaction, which was set to 100% in each experiment. The results shown are representative of at least three independent assays. D, regulation of IBP GEF activity by Lck and PI(3,4,5)P3. [^3H]GDP-loaded Rac1 was incubated with Lck-phosphorylated wild-type HA-IBP (IBP+Lck) in the presence or absence of PI(3,4,5)P3 (1 μM) for 0 or 40 min. […] The exchange reactions were then stopped, and the amount of [^3H]GDP remaining bound to Rac1 was measured by filter-binding method as described for A-C. The percentage of [^3H]GDP remaining bound after incubation for 40 min was evaluated relative to the amount of radioactivity remaining at time 0 of the respective reaction, which was set to 100% in each experiment. […]"}}, "data": [{"molecule": "wild-type IBP: purified recombinant full-length human IBP (IRF-4 Binding Protein), GST fusion or HA-tagged", "values": [{"measurement": "dissociation of [3H]GDP from Rac1 (GEF activity)", "setting": "[1]", "result": "did not stimulate the dissociation"}, {"measurement": "dissociation of [3H]GDP from Cdc42 (GEF activity)", "setting": "[2]", "result": "did not stimulate the dissociation"}]}, {"molecule": "phosphatidylinositol 3,4,5-triphosphate [PI(3,4,5)P3, reference compound]", "values": [{"measurement": "GEF activity of Lck-phosphorylated wild-type IBP on Rac1 on addition of PI(3,4,5)P3", "setting": "[1]; PI(3,4,5)P3 1 μM, 40 min", "result": "stimulated"}]}, {"molecule": "Lck: purified Lck kinase, Src family protein tyrosine kinase, used to phosphorylate IBP in vitro", "values": [{"measurement": "ability of wild-type IBP to promote GDP-GTP exchange on Rac1 after phosphorylation by Lck", "setting": "[1]; purified HA-IBP phosphorylated in vitro by purified Lck, 40 min", "result": "enhanced ability"}]}, {"molecule": "B1", "values": [{"measurement": "dissociation of [3H]GDP from Rac1 (GEF activity)", "setting": "[1]", "result": "stimulated rapid GDP dissociation"}, {"measurement": "dissociation of [3H]GDP from Cdc42 (GEF activity)", "setting": "[2]", "result": "stimulated rapid GDP dissociation"}]}]}
